Fewer inactive variants are shown than the library holds.
B1: TPR 5TU (parent)
chain: GGAUCUUCUCGAUCUAACAAAAAAGACAAAUCUGCCACAAAGCUUGAGAGCAUCUUCGGAUGCAGAGGCGGCAGCCUUCGGUGGCGCGAUAGCGCCAACGUUCUCAACUAUGACACGCAAAACGCGUGCUCCGUUGAAUGGAGUUUAUCAUG

Variants of: B1
Assay: polymerase ribozyme fitness, log enrichment relative to wild type (log ratio); higher = more active; in vitro selection for triplet polymerase activity
In short: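 Fitness is a logarithmic measure of how a genotype enriched relative to the wild type, with replicate averages weighted by inverse variance. The logarithm uses base 2, and enrichment came from Illumina sequencing of input and output libraries. Those libraries were PCR-built, transcribed mutants of each subunit of a heterodimeric triplet polymerase ribozyme, passed through one triplicate in vitro selection round that included frozen incubation at −7 °C, gel excision of extended constructs and streptavidin-bead capture. Genotypes were kept only if they had ≥10 input reads and ≥1 read per output.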

Variant | polymerase ribozyme fitness (log ratio)
GGGUCUUCUCGAUCAAACAAAAAAGACAAAUCUGCCACAAAGCUUGAGAGCAUCUUCGGAUGCAGAGGCGGCAGCCUUCGGUGGCGCGACAGCUCCAACGUUCUCAACUAUGACACGCAAAACAUGUGCUCCGUUGAAUGGAGUUUAUCAUG [A3G U15A U90C G94U G124A C125U] | ≤ -4.2
GGGUCUUCUCGAUCUAACAAAAAAGACAAAUCUGCCACAAAGCUUGAGAGCAUCUUCGGAUGCAGAGGCGGCAGCCUUCGGUGGCGUGAUAGCGCCAACGUUCUCAACUAUGACACGCAAAACGCGUGCUCGGUUGAAUGGAGUUUAUCAUG [A3G C87U C132G] | -4.07
GGUUCUUCUCGAUCUCACAAAAAAGACAAAUCUGCCACAAAGCUUGAGAGCUUCUUUGGAUGCAGAGGCGGCAGCUUUCGGUGGCUCGAUAGCGCCAACGUUCUCAACUAUGACACGCAAAACGCGUGCUCCGUUGAAUGGAGUUUAUCAUG [A3U A16C A52U C57U C76U G86U] | ≤ -4.2
GGGUCUUCUCGACCUAACAAAAAAGACAAAUCUGCCACAAAGCUUGAGAGCAUCUUCGGAUGCAGAGGCGGCAGCCUUCGGUGGCGCGAUAGCGCCAUCGUUCUCAUCUAUGACACGCAAAACGCGUGCUCCGUUGAAUGGAGUUUAUCAUG [A3G U13C A98U A107U] | -4
GGGGCUUCUCGAUCUAACAAAAAAGACAAAUUUGCCACAAAGCUUGAGAGCAUCUACGGAUGCAGAGGCGGCAACCUUCGAUGGCGCGAUAGCGCCAACGUUCUCAACUAUGACACGCAGAACGCGUGCUCCGUUGAAUGGAGUUUAUCAUG [A3G U4G C32U U56A G74A G81A A120G] | -0.184
GGGUCUUCUCGAUCUAACAAAAAAGACAAAUCUGCCACAAAGCUUGAGAGCAUCUUCGGAUGCAGAGGCGGCAGCCUUCGGUGGCGCGAUAGCCCCAACGUUCUCAACUAUGACACGCAAAACGCGUGCUCCGUUGAAUGGAGUUUAUCAUG [A3G G94C] | -1.07
GGGUCUUCUCGAUCUAACAAAAAAGACAAAUCUGCCACAAAGCUUGAGAGCAUCUUCGGAUGCAGAGGCGGCAGCCUUCGGUGGCGCGAUAGCUCCAACGUUUUCAACUAUGACACGCAAAACGCGCGCUCCGCUAAAUGGAGUUUAUCAUG [A3G G94U C103U U127C U134C G136A] | -3.9
GGGUCUGCUCGAUCUAACAAAAAAGACAAAUCUGCCAUAGAGCUUGAGAGCAUGUUCGGAUGCAGAGGCGGCAGCCUUCGGUGGCGCGAUAGCGUCAACGUUCUCAACUAUGACACGCAAAACGCGUGCUCCGUUGAAUGGAGUAUAUCAUG [A3G U7G C38U A40G C54G C95U U145A] | ≤ -4.2
GGGUCUUCUCGAUCUAACAAAAAAGACAAAUCUGCCACAAAGCUUCAGAGCAUAUUCGGAUGCAGAGGCGGCAGCCUUCGGUGGCGCGAUAGCGCCAACGUUCUCAACUAUGACACGCAAAACGCGUGCUCCGUUGAAUGGAGUUCAUCAUG [A3G G46C C54A U146C] | -3.68
GGGUCUUCUCGAUCUAACAAAAAAGACAAAUCUGCCACAAAGCGUGAGAGCAUCUUAGUAUGCAGAGCCGGCAGCCUUCGGUGGCGGGAUAGCGCCAACGUUCUCAACUAUGACACGCAAAACGCGUGCUCCGUUGAAUGGAGUUUAUCAUG [A3G U44G C57A G59U G68C C87G] | ≤ -4.2
GGGUCUUCUCGAUCUAACAAAAAAGACAAAUCUGCCACAAAGCUUGAGAGCAUCUUCGGAUGCAGAGGCGGCAGCCUUCGGUGCCGCGAUAGCGCCAACGUUCUCAACUAUGACACGCAAAACGCGUGCUCCGUUGAAUGGAGUUUAUCAUG [A3G G84C] | -1.98
GGGUCUUCUCGAGCUAACAAUAAAGACAAAUCUGCCACAUAGCUUGAGAGCAUCUUCGGAUGCAGAGGAGGCAGCCUUGAGUUGUUCGAUAGCGCCAACGUUCUCAACUAUGACACGCAAAACGCGUGCUCCGUUCAAUGGAGUUUAUCAUG [A3G U13G A21U A40U C69A C79G G80A G83U C85U G86U G136C] | ≤ -4.2
GGGUCUUCUCGAUCUAACAAAAAAGACAAAUCUGCCACAAAGCUUGAGAGCAUCUUCGGAUGCAGAGGCGGCAGCCUUCGGUGGCGCGAUAGCGCCAACGUUCUCAACUAUGACAUGCAAAACACGUGCUCCGUUGAAUGGGGUUUAUCAUG [A3G C116U G124A A142G] | -2.6
GGGUCUUCUCGAUCUAACAAAAAAGACAAAGCUGCCACAAAGCUUGAGAACAUCUUCGGAUGCAGAGGCGGCAGCCUUCGGUGGCGCGAUAGCGGCAACGUUCUCAACUAUGACACGGAAAACGCGUGCUCCGUUGACUGGAGUUAAUCAUU [A3G U31G G50A C95G C118G A138C U146A G152U] | ≤ -4.2
GGGUCUUCUCGAACUAACAAAAAAGACAAAUCUGCCACAAAGCUUGAGAGCAUCUACGGAUGCAGAGGCGGCAGCCUUCGGUGGCGCGAUAGCGCAAACGUUCUCAACUAUGACACGCAAAACGCGUGCUCCGUUGAGUGGAGUUUAUCAUG [A3G U13A U56A C96A A138G] | ≤ -4.2
GGGUCUUCUCGAUCUAACAAAAAAGACAAAUCUGCCACAAAGCUUGAGAGCAUCUUCGGAUGCAGAGGCGGCAGCCUUCGGUGGCGCGAUAGAGCCAACGUUCUCAAUUAUGACACGCAAAACGGGUGCUCCGUUGAAUGGGGUGAAUCAUG [A3G C93A C108U C125G A142G U145G U146A] | ≤ -4.2
GGGUCUUCUCGAUCUAACAAAAAAGACAAAUCUGCCACAAAGCUUGAGACCAUCUUCGGAUGCAGAGGCGGCAGCCUUCGGUGGCGCGAUAGCGCCAACGUUCUCAACUAUGACACGCAGAACGCGUGAUCCGUUGAAUGGAGUUUAUCAUG [A3G G50C A120G C129A] | ≤ -4.2
GGGUCUUCUCGAUCUAACAAAAAAGACAAAUCUGCCACAAAGCUUGAGAGCAUCUUCGGAUGCAGAGGCGGCAGCCUUCGGUAGCUCGAUAGCGCCAACGUUCUCAACUAUGACACGUAAAACGCGUGCUCCGUUGAAUGGAGUUUAUCAUG [A3G G83A G86U C118U] | -3.29
GGGUCUUCUCGAUCUAACAAAAAAGACAAAUCUGCCACAAAGCUUGAGAGCAUCUUCGGAUGCAGAGGCGGCAGCCUUCGGGGGCGCGAUAGCGCUAACGUUCUCAACUAUGACACGCAAAACGCGUGCUCCGUUGAAUGGAGUUUAACAUG [A3G U82G C96U U148A] | -4.17

Reference: the RNAGym collection of RNA variant scans (doi:10.1073/pnas.2313332121)
